This is an account of results in the supplement of paper PMC9170038.

Data set [1] relates to MS2 coat protein. The data set is described as follows: apparent KD of MS2 coat protein, switch ON state; designed switch direction (-1 OFF switch, 1 ON switch): 1; higher = weaker reporter binding. The conditions noted are these: FMN input: 0 or 200 uM; Eterna round: R93 (includes R88 designs). The method, boiled down: (§1)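 Each design's apparent KD comes from the median of binding-curve fits to its normalised clusters. Those clusters carried RNA switches transcribed on-chip from Illumina sequencing clusters. SNAP-549-labelled MS2 coat protein was titrated onto them in twofold steps (0.7 or 1.5 nM to 3 µM; per step 0.8–1.5 h down to 10–20 min). Conditions were 100 mM Tris-HCl pH 7.5, 80 mM KCl, 4 mM MgCl2, without or with constant ligand.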

The subject of data set [2] is MS2 coat protein. The data set is described as follows: apparent KD of MS2 coat protein, switch OFF state (with FMN for OFF switches, without FMN for ON switches); designed switch direction (-1 OFF switch, 1 ON switch): 1; higher = weaker reporter binding. The conditions noted are these: FMN input: 0 or 200 uM; Eterna round: R93 (includes R88 designs). The method, boiled down: as §1

For the sequence “AAACCACAUGAGGAUCACCCAUGUGUAAAAAAUACAGGAUAUGGAAACACGAAAGUGAAACCAGAAGGGUGGAAAA [77%, Mat - Mod of Eli, 29]”, the results for the “apparent KD of MS2 coat protein” value with MS2 coat protein [1] and in the data set on MS2 coat protein [2] were 31.6 nM and 28.3 nM, respectively.
As for “AAAGAAAAACUAGAGGAUAUCCAAGUGGUAACAUGAGGAUCACCCAUGUGAAGAAAGGAGCAUGAGGAGAAGGCUAGAAGAAAAA [JL Nando mod 25]”, the “apparent KD of MS2 coat protein” value stood at 19.2 nM with MS2 coat protein [1] and 82.3 nM in the data set with MS2 coat protein [2].
Turning to “AAAGAAAAACUAGAGGAUAUCCGAGUGGUAACAUGAGGAUCACCCAUGUGAAGAAAGGAACAUAUGGAGAAGGCUAGAAGAAAAA [JL Nando Mod 4]”, the “apparent KD of MS2 coat protein” value came out at 63.5 nM with MS2 coat protein [1] and 438 nM in the data set with MS2 coat protein [2].
For “AAAGAAAAACUAGAGGAUAUCUGAAUGAUAACAUGAGGAUCACCCAUGUGAAGAAAGGAAUAUGAGGAGAAGGCUAGAAGAAAAA [JL Nando mod 19]”, in that order: 33.9 nM and 44.9 nM.
In the case of “AAAGAAAAACUAGAGGAUAUCUGAGUGGUAACAUGAGGAUCACCCAUGUGAAGAAAGGAACAUGAGGAGAAGGCUAGAAGAAAAA [JL Nando mod 13]”, the “apparent KD of MS2 coat protein” value in the data set with MS2 coat protein [1] is 23.8 nM; in the data set on MS2 coat protein [2], 44.2 nM.
For the sequence “AAAGAAAAACUAGAGGAUAUUUGAGUGGUAACAUGAGGAUCACCCAUGUGAAGAAAAGAACAUGAGGAGAAGGCUAGAAGAAAAA [JL Nando mod 15]”, the “apparent KD of MS2 coat protein” value was determined as 23.1 nM in the data set on MS2 coat protein [1] and 42.3 nM in the data set on MS2 coat protein [2].
Regarding “AAAGAAAAACUAGAGGAUAUUUGAGUGGUAACAUGAGGAUCACCCAUGUGAAGAAAGGAGCAUGAGGAGAAGGCUAGAAGAAAAA [JL Nando mod 23]”, the results for the “apparent KD of MS2 coat protein” value in the data set on MS2 coat protein [1] and in the data set with MS2 coat protein [2] were 21.5 nM and 68.7 nM, respectively.
Taken in the same sequence, the figures for “AAAGACACAGUGCAGGAUAUGGUAAUAGUCACAUGAGGAUCACCCAUGUUCUUUUAUAAGAACGAUCAGAAGGGCGGUGAAAAAA [SameState2 Malc#12]” were 111 nM and 295 nM.
On to “AAAUAAAAAAAAGAGGAUAUUCAUGUGAAAACAUGAGGAUCACCCAUGUAAAAAAAUAAAAAUAAAAAGAAGGAAAAAUAAAAAA [SS2: 83 No MS2]”, for which the “apparent KD of MS2 coat protein” value in the data set on MS2 coat protein [1] turned out to be 23.6 nM; in the data set with MS2 coat protein [2], 25.1 nM.
In the case of “AAAUAAAAAAGGGAGGAUAUUCAUGUGAAAACAUGAGGAUCACCCAUGUAAAAAAAUAAAAAUAAAAAGAAGGAAAAAUAAAAAA [SS2: 80 No MS2]”, the figures for the “apparent KD of MS2 coat protein” value with MS2 coat protein [1] and in the data set on MS2 coat protein [2] were 6.62 nM and 151 nM, respectively.
Take “AAAUAAAGGACUGAGGAUAUACCACAUGAAACAUGAGGAUCACCCAUGUUGAAAAACAAAGGGUGGUAGAAGGCAGUCCACAAAC [Same State 2.5c ( so lets mod hyphema)]”: the entries for the “apparent KD of MS2 coat protein” value with MS2 coat protein [1] and in the data set on MS2 coat protein [2] were 10.7 nM and 14.1 nM, respectively.
For “AAAUAAAGGACUGAGGAUAUACCACAUGAAACAUGAGGAUCACCCAUGUUGAAAAACAGAGGGUGGUAGAAGGUAGUCCACAAAC [Same State 2.5b ( so lets mod hyphema)]”, in that order: 21.4 nM and 51.3 nM.
Take “AAAUAAAUGACUAAGGAUAUAUCAGAGAAAACAUGAGGAUCACCCAUGUAAUAAUAAAAAGGGUGAUAGAAGGUAGUCAACAAACA [Pariah 4 (MS2 Riboswitches - Same State 2)]”: the “apparent KD of MS2 coat protein” value came out at 26 nM in the data set with MS2 coat protein [1] and 154 nM in the data set with MS2 coat protein [2].
Taken in the same sequence, the figures for “AAAUAAAUGACUAAGGAUAUUUCAGAGAAAACAUGAGGAUCACCCAUGUAAUAAUAAAAAGGGUGAGAGAAGGUAGUCAACAAAC [74%, More Paria 4]” were 13.8 nM and 25.7 nM.
On to “AAAUAAAUGACUGAGGAUAUAUCGAAGAAGACAUGAGGAUCACCCAUGUAAUAAUAAAAAGGGUGGUAGAAGGUAGUCAACAAAC [Mod 9 of Pariah 4 by Hyphema in Round 1]”, for which the figures for the “apparent KD of MS2 coat protein” value in the data set with MS2 coat protein [1] and in the data set with MS2 coat protein [2] were 331 nM and 376 nM, respectively.
For “AAAUAAAUGACUGAGGAUAUAUCGAUGGGUACAUGAGGAUCACCCAUGUGUUAAUAAAAAGGGUGGUAGAAGGUAGUCAACAAAC [Mod 16 of Pariah 4 by Hyphema in Round 1]”, the “apparent KD of MS2 coat protein” value in the data set on MS2 coat protein [1] came to 238 nM; in the data set with MS2 coat protein [2], 748 nM.
For “AAAUAACAUGAGGAUCACCCAUGUUACAACUUUACAGGAUAUGUGGGUGAAAAUAGCAUGACAGAAGGGUACAGUA [SameState1 Malc#35]”, in that order: 171 nM and 158 nM.
Consider “AAAUAGUGCACUAAGGAUAUGUCGCAUGACACAUGAGGAUCACCCAUGUGGUAACACAGAGGGUGGCAGAAGGUAGUGUGCAAAC [Mod 2 of Pariah 6 (Round1) by Hyphema]”, for which the “apparent KD of MS2 coat protein” value worked out at 35.7 nM with MS2 coat protein [1] and 446 nM with MS2 coat protein [2].
For “AAAUAUAAAAACUAGGAUAUACUAAAAUAAACAUGAGGAUCACCCAUGUAAAAAAAAAAACUCAUGUAGAAGGAGUAAAUAUAAA [ss2 9th]”, in that order: 22.6 nM and 13.8 nM.
